We go through 38 sequences from the supplement of paper PMC7877785.

This series in a line: self-splicing fitness, log relative to wild type (ln ratio); higher = more splicing; Tetrahymena group I intron in knt gene, E. coli kanamycin selection, DiMSum; sequences stand for … in CUCUCU…GGAGGGAAAAGUUAUCAGGCAUGCACCUGGUAGCUAGUCUUUAAACCAAUAGAUUGCAUCGGUUUAAAAGGCAAGACCGUCAAAUUGCGGGAAAGGGGUCAACAGCCGUUCAGUACCAAGUCUCAGGGGAAACUUUGAGAUGGCCUUGCAAAGGGUAUGGUAAUAAGCUGACGGACAUGGUCCUAACCACGCAGCCAAGUCCUAAGUCAACAGAUCUUCUGUUGAUAUGGAUGCAGUUCACAGACUAAAUGUCGGUCGGGGAAGAUGUAUUCUUCUCAUAAGAUAUAGUCGGACCUCUCCUUAAUGGGAGCUAGCGGAUGAAGUGAUGCAACACUGGAGCCGCUGGGAACUAAUUUGUAUGCGAAAGUAUAUUGAUUAGUUUUGGAGUACUCGUGGUCG
The essentials:
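Library with all eight P1ex-region intron nucleotides randomised, intron inside the knt kanamycin-resistance gene on pET-22b(+), in E. coli BL21(DE3). Cells grew overnight at 37°C or 30°C on LB agar with or without 25 μg/mL kanamycin (plus 100 μg/mL carbenicillin, 50 μM IPTG, 0.2% rhamnose), in six replicate transformations. Pooled colonies were amplicon-sequenced on Illumina HiSeq 2500. DiMSum fitness is the error-weighted combination of wild-type-normalised replicate fold changes, kanamycin versus none.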

± gives the uncertainty stated by the source.

For the sequence GACAAGCAAUAUUACGCUGU, the “self-splicing fitness (ln)” value was -3.61 ± 0.25 (30 °C) and -1.12 ± 0.2 (37 °C).

For the sequence GACAAGCAAUAUUACGCUUU, the “self-splicing fitness (ln)” value is -3.43 ± 0.42 (30 °C) and -2.11 ± 0.32 (37 °C).

Turning to GACAAGCAAUAUUACGGCAC, the “self-splicing fitness (ln)” value was 0.362 ± 0.075 (30 °C) and -0.214 ± 0.11 (37 °C).

With GACAAGCAAUAUUACGGCUA, the “self-splicing fitness (ln)” value is -0.175 ± 0.074 (30 °C) and -0.187 ± 0.079 (37 °C).

As to GACAAGCAAUAUUACGGGGG, the “self-splicing fitness (ln)” value is -3.58 ± 0.15 (30 °C) and -3.18 ± 0.2 (37 °C).

For the sequence GACAAGCAAUAUUACGGGGU, the “self-splicing fitness (ln)” value runs as follows: (30 °C) -2.96 ± 0.12; (37 °C) -3.16 ± 0.15.

For GACAAGCAAUAUUACGGGUG, the “self-splicing fitness (ln)” value runs as follows: (30 °C) -0.472 ± 0.065; (37 °C) -0.733 ± 0.081.

Consider GACAAGCAAUAUUACGGUCU, for which the “self-splicing fitness (ln)” value is -4.04 ± 0.16 (30 °C) and -2.42 ± 0.15 (37 °C).

As for GACAAGCAAUAUUACGGUUU, the “self-splicing fitness (ln)” value is, setting by setting: (30 °C) -1.79 ± 0.079; (37 °C) -0.351 ± 0.074.

In the case of GACAAGCAAUAUUACGUAUG, the “self-splicing fitness (ln)” value (30 °C) is -2.86 ± 0.11 and the “self-splicing fitness (ln)” value (37 °C) is -1.23 ± 0.088.

For the sequence GACAAGCAAUAUUACGUGAC, the “self-splicing fitness (ln)” value is -1.47 ± 0.096 (30 °C) and -1.42 ± 0.12 (37 °C).

With GACAAGCAAUAUUACGUUAA, the “self-splicing fitness (ln)” value was -2.19 ± 0.12 (30 °C) and -1.71 ± 0.15 (37 °C).

GACAAGCAAUAUUACGUUAG: the “self-splicing fitness (ln)” value is -3.84 ± 0.2 (30 °C) and -3.34 ± 0.19 (37 °C).

Regarding GACAAGCAAUAUUACGUUGA, the “self-splicing fitness (ln)” value runs as follows: (30 °C) -2.14 ± 0.09; (37 °C) -1.48 ± 0.12.

Take GACCAGCAAUAUUACGAAGG: the “self-splicing fitness (ln)” value (30 °C) was -3.3 ± 0.13 and the “self-splicing fitness (ln)” value (37 °C) was -2.19 ± 0.18.

Turning to GACCAGCAAUAUUACGAGAU, the “self-splicing fitness (ln)” value reads like this: (30 °C) -2.62 ± 0.12; (37 °C) -1.05 ± 0.084.

Consider GACCAGCAAUAUUACGAGGG, for which the “self-splicing fitness (ln)” value is, setting by setting: (30 °C) -3.24 ± 0.2; (37 °C) -2.57 ± 0.21.

On to GACCAGCAAUAUUACGAUGU, for which the “self-splicing fitness (ln)” value was -0.366 ± 0.055 (30 °C) and 0.0308 ± 0.072 (37 °C).

For GACCAGCAAUAUUACGCACU, the “self-splicing fitness (ln)” value reads like this: (30 °C) -0.104 ± 0.06; (37 °C) 0.195 ± 0.079.

Take GACCAGCAAUAUUACGCAGG: the “self-splicing fitness (ln)” value (30 °C) was -3.82 ± 0.21 and the “self-splicing fitness (ln)” value (37 °C) was -2.49 ± 0.13.

GACCAGCAAUAUUACGCAUC: the “self-splicing fitness (ln)” value is, setting by setting: (30 °C) -0.629 ± 0.064; (37 °C) -0.599 ± 0.076.

Turning to GACCAGCAAUAUUACGCCAC, the “self-splicing fitness (ln)” value (37 °C) is -2.73 ± 0.46.

Turning to GACCAGCAAUAUUACGCCUC, the “self-splicing fitness (ln)” value was -1.17 ± 0.097 (30 °C) and -0.623 ± 0.11 (37 °C).

As for GACCAGCAAUAUUACGCGCA, the “self-splicing fitness (ln)” value runs as follows: (30 °C) -0.663 ± 0.065; (37 °C) 0.131 ± 0.093.

As for GACCAGCAAUAUUACGCUAU, the “self-splicing fitness (ln)” value by setting is: (30 °C) -1.28 ± 0.074; (37 °C) 0.126 ± 0.082.

On to GACCAGCAAUAUUACGCUGA, for which the “self-splicing fitness (ln)” value runs as follows: (30 °C) -1.04 ± 0.11; (37 °C) -0.811 ± 0.097.

In the case of GACCAGCAAUAUUACGCUUA, the “self-splicing fitness (ln)” value is, setting by setting: (30 °C) -0.722 ± 0.053; (37 °C) 0.0868 ± 0.064.

Turning to GACCAGCAAUAUUACGGCAA, the “self-splicing fitness (ln)” value is -0.359 ± 0.067 (30 °C) and -0.32 ± 0.078 (37 °C).

On to GACCAGCAAUAUUACGGGCG, for which the “self-splicing fitness (ln)” value by setting is: (30 °C) 0.17 ± 0.059; (37 °C) 0.374 ± 0.078.

For the sequence GACCAGCAAUAUUACGGUAU, the “self-splicing fitness (ln)” value is -1.29 ± 0.056 (30 °C) and -0.678 ± 0.068 (37 °C).

With GACCAGCAAUAUUACGUAUA, the “self-splicing fitness (ln)” value (30 °C) was -1.06 ± 0.059 and the “self-splicing fitness (ln)” value (37 °C) was -0.251 ± 0.079.

In the case of GACCAGCAAUAUUACGUCUU, the “self-splicing fitness (ln)” value (30 °C) came to 0.335 ± 0.05 and the “self-splicing fitness (ln)” value (37 °C) stood at 0.369 ± 0.068.

Take GACCAGCAAUAUUACGUGAU: the “self-splicing fitness (ln)” value was -0.306 ± 0.05 (30 °C) and -0.151 ± 0.063 (37 °C).

For the sequence GACCAGCAAUAUUACGUGUU, the “self-splicing fitness (ln)” value (30 °C) is -3.73 ± 0.096 and the “self-splicing fitness (ln)” value (37 °C) was -2.44 ± 0.11.

For the sequence GACCAGCAAUAUUACGUUAU, the “self-splicing fitness (ln)” value runs as follows: (30 °C) -0.752 ± 0.045; (37 °C) -0.147 ± 0.062.

Regarding GACCAGCAAUAUUACGUUGU, the “self-splicing fitness (ln)” value runs as follows: (30 °C) -1.11 ± 0.047; (37 °C) -0.336 ± 0.063.

For the sequence GACGAGCAAUAUUACGAACC, the “self-splicing fitness (ln)” value reads like this: (30 °C) -3.09 ± 0.18; (37 °C) -0.495 ± 0.13.

GACGAGCAAUAUUACGAACG: for the setting “30 °C”, the “self-splicing fitness (ln)” value was -0.929 ± 0.34.
